{"source": "paper PMC3099546", "substrate": "CCCCC/C=C\\C\\C=C/C=C/C=C/[C@@H](SC[C@H](NC(=O)CC[C@H](N)C(=O)O)C(=O)NCC(=O)O)[C@@H](O)CCCC(=O)O", "experiment": "purified protein", "data": [{"protein": "gamma-glutamyl leukotrienase (GGT5) (Homo sapiens) (protein) chain 1: SRHQAPCGPQAFAHAAVAADSKVCSDIGRAILQQQGSPVDATIAALVCTSVVNPQSMGLGGGVIFTIYNVTTGKVEVINARETVPASHAPSLLDQCAQALPLGTGAQWIGVPGELRGYAEAHRRHGRLPWAQLFQPTIALLRGGHVVAPVLSRFLHNSILRPSLQASTLRQLFFNGTEPLRPQDPLPWPALATTLETVATEGVEVFYTGRLGQMLVEDIAKEGSQLTLQDLAKFQPEVVDALEVPLGDYTLYSPPPPAGGAILSFILNVLRGFNFSTESMARPEGRVNVYHHLVETLKFAKGQRWRLGDPRSHPKLQNASRDLLGETLAQLIRQQIDGRGDHQLSHYSLAEAWGHGTG chain 2: TSHVSVLGEDGSAVAATSTINTPFGAMVYSPRTGIILNNELLDLCERCPRGSGTTPSPVSGDRVGGAPGRCWPPVPGERSPSSMVPSILINKAQGSKLVIGGAGGELIISAVAQAIMSKLWLGFDLRAAIAAPILHVNSKGCVEYEPNFSQEVQRGLQDRGQNQTQRPFFLNVVQAVSQEGACVYAVSDLRKSGEAAGY", "values": [{"measurement": "Km", "result": "10.2 ± 0.1", "unit": "µM"}, {"measurement": "kcat", "result": 3.33, "unit": "s⁻¹"}, {"measurement": "kcat/Km", "result": 317000, "unit": "M⁻¹ s⁻¹"}]}]}
